Measured values as given in US20110129481A1.

Columns and labels:
[1] = target: human c-Met/Fc fusion protein (R&D Systems, Inc.) (human) (UniProt P08581); test: ELISA, plate-bound c-Met/Fc (2 ug/ml), anti-mouse IgG-HRP
[2] = target: mouse c-Met/Fc fusion protein (R&D Systems, Inc.) (mouse) (UniProt P16056); test: as above
UniProt P16056, sequence (P16056 25-931 limits assumed): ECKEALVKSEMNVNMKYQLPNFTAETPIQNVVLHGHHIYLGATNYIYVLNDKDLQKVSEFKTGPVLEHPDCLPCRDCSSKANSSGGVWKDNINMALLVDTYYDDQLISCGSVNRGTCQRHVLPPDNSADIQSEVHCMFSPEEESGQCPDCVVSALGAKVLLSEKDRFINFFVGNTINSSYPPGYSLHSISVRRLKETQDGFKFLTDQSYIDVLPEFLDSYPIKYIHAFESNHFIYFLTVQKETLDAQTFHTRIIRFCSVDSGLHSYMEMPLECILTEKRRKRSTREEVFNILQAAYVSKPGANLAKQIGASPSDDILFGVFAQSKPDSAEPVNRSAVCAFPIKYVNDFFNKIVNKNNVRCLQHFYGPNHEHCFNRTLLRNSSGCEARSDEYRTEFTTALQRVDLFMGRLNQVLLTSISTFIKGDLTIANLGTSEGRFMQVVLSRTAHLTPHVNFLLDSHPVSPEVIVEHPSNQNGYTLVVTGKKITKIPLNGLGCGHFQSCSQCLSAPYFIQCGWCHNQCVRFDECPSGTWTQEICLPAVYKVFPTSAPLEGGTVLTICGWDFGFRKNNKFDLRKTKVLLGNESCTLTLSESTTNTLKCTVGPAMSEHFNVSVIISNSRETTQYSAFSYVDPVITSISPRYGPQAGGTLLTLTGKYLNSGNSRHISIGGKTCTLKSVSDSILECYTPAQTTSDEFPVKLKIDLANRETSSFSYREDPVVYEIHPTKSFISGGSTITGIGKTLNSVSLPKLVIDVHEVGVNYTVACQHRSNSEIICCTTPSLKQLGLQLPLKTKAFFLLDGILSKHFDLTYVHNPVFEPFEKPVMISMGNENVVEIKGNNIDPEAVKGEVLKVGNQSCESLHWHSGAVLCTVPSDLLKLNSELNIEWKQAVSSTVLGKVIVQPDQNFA

UniProt P08581, sequence (P08581 25-932 limits assumed): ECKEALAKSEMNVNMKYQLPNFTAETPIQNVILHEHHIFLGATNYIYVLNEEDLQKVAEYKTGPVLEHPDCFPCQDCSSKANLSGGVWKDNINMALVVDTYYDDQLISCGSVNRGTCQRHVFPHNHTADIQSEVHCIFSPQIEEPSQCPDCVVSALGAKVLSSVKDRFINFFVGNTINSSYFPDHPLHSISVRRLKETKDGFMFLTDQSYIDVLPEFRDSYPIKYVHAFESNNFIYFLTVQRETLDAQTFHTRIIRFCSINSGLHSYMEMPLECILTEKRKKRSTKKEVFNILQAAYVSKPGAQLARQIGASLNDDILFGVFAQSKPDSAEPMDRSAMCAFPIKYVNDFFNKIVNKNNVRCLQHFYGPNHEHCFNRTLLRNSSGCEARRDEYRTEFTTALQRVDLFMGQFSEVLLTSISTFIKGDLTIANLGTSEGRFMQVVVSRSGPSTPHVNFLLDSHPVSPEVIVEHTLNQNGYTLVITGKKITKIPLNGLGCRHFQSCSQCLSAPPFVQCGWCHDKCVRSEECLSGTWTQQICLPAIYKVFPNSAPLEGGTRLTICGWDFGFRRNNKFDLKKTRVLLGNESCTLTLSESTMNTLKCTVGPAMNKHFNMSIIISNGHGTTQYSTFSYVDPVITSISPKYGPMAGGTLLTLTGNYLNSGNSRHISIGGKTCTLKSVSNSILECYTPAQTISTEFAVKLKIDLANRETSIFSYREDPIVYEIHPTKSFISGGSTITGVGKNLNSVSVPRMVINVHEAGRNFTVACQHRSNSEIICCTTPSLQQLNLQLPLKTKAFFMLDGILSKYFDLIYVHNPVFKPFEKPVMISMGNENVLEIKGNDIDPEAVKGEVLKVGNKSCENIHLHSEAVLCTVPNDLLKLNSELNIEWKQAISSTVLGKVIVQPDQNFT

absorption at 450 nm [1]: 0.373
absorption at 450 nm [2]: 0.113
Substance: monoclonal antibody against human c-Met, 5D5 (Genetech)
